Results reported in patent US20200024330A1.

Experiments:
Test in all cases: cell-based or functional assay
[1] = target: HIV-1 92BR020 envelope glycoprotein (Env) on pseudovirus (HIV-1)
[2] = target: HIV-1 92RW020 envelope glycoprotein (Env) on pseudovirus (HIV-1)
[3] = target: HIV-1 92TH021 envelope glycoprotein (Env) on pseudovirus (HIV-1)
[4] = target: HIV-1 92UG024 envelope glycoprotein (Env) on pseudovirus (HIV-1)
[5] = target: HIV-1 Env of isolate MGRM-AE-004 (HIV-1)
[6] = target: HIV-1 Env of isolate MGRM-AE-005 (HIV-1)
[7] = target: HIV-1 Env of isolate MGRM-AE-006 (HIV-1)
[8] = target: HIV-1 Env of isolate MGRM-AE-007 (HIV-1)
[9] = target: HIV-1 Env of isolate MGRM-AE-008 (HIV-1)
[10] = target: HIV-1 Env of isolate MGRM-G-001 (HIV-1)
[11] = target: HIV-1 Env of isolate MGRM-G-004 (HIV-1)
[12] = target: HIV-1 Env of isolate MGRM-G-006 (HIV-1)
[13] = target: HIV-1 Env of isolate MGRM-G-009 (HIV-1)
[14] = target: HIV-1 Env of isolate MGRM-G-011 (HIV-1)
[15] = target: HIV-1 Env of isolate MGRM-G-013 (HIV-1)
[16] = target: HIV-1 Env of isolate MGRM-G-014 (HIV-1)
[17] = target: HIV-1 Env of isolate MGRM-G-015 (HIV-1)
[18] = target: HIV-1 Env of isolate MGRM-G-016 (HIV-1)
[19] = target: HIV-1 Env of isolate MGRM-G-017 (HIV-1)
[20] = target: HIV-1 Env of isolate MGRM-G-019 (HIV-1)
[21] = target: HIV-1 Env of isolate MGRM-G-027 (HIV-1)
[22] = target: HIV-1 MGRM-Chronic-B-008 Env (pseudovirus) (HIV-1)
[23] = target: HIV-1 NL43 envelope glycoprotein (Env) on pseudovirus (HIV-1)
[24] = target: aMLV envelope (negative control pseudovirus)

Substance: 5141_B17 (PGT-126) (antibody)
- IC50 (ug/ml), neutralizing activity [1]: 0.0163 µg/mL
- IC50 (ug/ml), neutralizing activity [2]: 0.0046 µg/mL
- IC50 (ug/ml), neutralizing activity [3]: 0.115 µg/mL
- IC50 (ug/ml), neutralizing activity [4]: > 10 µg/mL
- neutralization IC50 [5]: > 50 µg/mL
- neutralization IC50 [6]: 0.324 µg/mL
- neutralization IC50 [7]: 17.3 µg/mL
- neutralization IC50 [8]: > 50 µg/mL
- neutralization IC50 [9]: > 50 µg/mL
- IC50, pseudovirus neutralization [10]: 0.038 µg/mL
- IC50, pseudovirus neutralization [11]: > 50 µg/mL
- IC50, pseudovirus neutralization [12]: > 50 µg/mL
- IC50, pseudovirus neutralization [13]: > 50 µg/mL
- IC50, pseudovirus neutralization [14]: 7.32 µg/mL
- IC50, pseudovirus neutralization [15]: 48.8 µg/mL
- IC50, pseudovirus neutralization [16]: 0.009 µg/mL
- IC50, pseudovirus neutralization [17]: > 50 µg/mL
- IC50, pseudovirus neutralization [18]: > 50 µg/mL
- IC50, pseudovirus neutralization [19]: > 50 µg/mL
- IC50, pseudovirus neutralization [20]: 0.018 µg/mL
- IC50, pseudovirus neutralization [21]: 0.875 µg/mL
- IC50, pseudovirus neutralization [22]: 5.89 µg/mL
- IC50 (ug/ml), neutralizing activity [23]: > 10 µg/mL
- IC50 [24]: > 10 µg/mL
- IC50, pseudovirus neutralization [24]: > 50 µg/mL
- IC80 [24]: > 10 µg/mL
- IC90 [24]: > 10 µg/mL
- IC95 [24]: > 10 µg/mL
